Patent US20230312724A1 (KADMON, published 2023)

What was measured:
human B7-H4-Fc = molecular target: T1, human B7-H4-Fc (human); experiment: ELISA, coated hB7-H4-Fc
T1 construct: also called hB7-H4-Fc; hB7-H4 Fc
Description: ELISA experiments were performed to determine binding to hB7-H4-Fc (FIG. 5A), hB7-H4-his (FIG. 5B), mB7-H4-Fc domain (FIG. 5C), hB7-H4 IgV domain (FIG. 5D), and hB7-H4 IgC domain (FIG. 5E). Flow cytrometry experiments were performed to determine binding to CHO cells expressing hB7-H4 (FIG. 5F) or mB7-H4 (FIG. 5G). […] A cross-reactive IgV binding antibody and an IgC binding antibody were used as controls.
(§1) About 1-2 μg/ml of human or mouse B7-H4-Fc (or his-tagged) was immobilized on ELISA plates (Immuno 2HB, Thermo scientific, cat #3455) at 4° C. overnight. After blocking the plates with 3% PBS+milk, serial diluted antibodies were added to the blocked plates and incubated at RT for 1-1.5 h. After washing the plates with PBS-T (0.05%), horse radish peroxidase (HRP)-conjugated antibody targeting the hFab was added to the plate. Signals were developed by adding 3,3′,5,5′-Tetramethylbenzidine (TMB (followed 1N of H₂SO₄ to stop the reaction. The OD at 450 nm was read by ELISA plate reader (Infinite M1000 from TECAN). GraphPad from Prism was used to plot OD450 vs. antibody concentration curve and to calculate the EC50 values.

human B7-H4-his [1] = molecular target: T2, human B7-H4-his (human, UniProt Q7Z7D3 25-259); experiment: ELISA, coated hB7-H4-his
T2 construct: also called hB7-H4-his; hB7-H4 his; not shown: his tag
T2 sequence: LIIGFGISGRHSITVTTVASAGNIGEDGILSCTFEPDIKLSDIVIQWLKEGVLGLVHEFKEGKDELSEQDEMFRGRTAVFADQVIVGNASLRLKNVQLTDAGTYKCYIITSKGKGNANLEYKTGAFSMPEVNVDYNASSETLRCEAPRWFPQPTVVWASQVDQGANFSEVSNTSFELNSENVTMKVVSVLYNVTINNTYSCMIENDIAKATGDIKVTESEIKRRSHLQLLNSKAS
Description: as §1

human B7-H4-his [2] = molecular target: T2, human B7-H4-his; experiment: ELISA on coated hB7-H4-his
Description: as §1

mouse B7-H4-his = molecular target: T3, mouse B7-H4-his (mouse, UniProt Q7TSP5 25-257); experiment: ELISA on coated mB7-H4-his
T3 construct: also called mB7-H4-his; mB7-H4-His; not shown: his tag
T3 sequence: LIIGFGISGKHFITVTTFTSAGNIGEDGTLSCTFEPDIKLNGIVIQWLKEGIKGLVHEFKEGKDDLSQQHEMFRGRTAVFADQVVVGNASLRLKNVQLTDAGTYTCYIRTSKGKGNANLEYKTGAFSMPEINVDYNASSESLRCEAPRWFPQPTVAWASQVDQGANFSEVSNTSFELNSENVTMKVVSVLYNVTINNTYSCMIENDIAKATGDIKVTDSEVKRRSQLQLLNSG
Description: as §1

[3] = molecular target: T4, IgV domain of mouse B7-H4-Fc (mouse; human); experiment: ELISA on coated IgV domain of mB7-H4
T4 construct: also called mB7-H4 IgV domain
Description: as §1

T4 sequence (chain, as listed by the source): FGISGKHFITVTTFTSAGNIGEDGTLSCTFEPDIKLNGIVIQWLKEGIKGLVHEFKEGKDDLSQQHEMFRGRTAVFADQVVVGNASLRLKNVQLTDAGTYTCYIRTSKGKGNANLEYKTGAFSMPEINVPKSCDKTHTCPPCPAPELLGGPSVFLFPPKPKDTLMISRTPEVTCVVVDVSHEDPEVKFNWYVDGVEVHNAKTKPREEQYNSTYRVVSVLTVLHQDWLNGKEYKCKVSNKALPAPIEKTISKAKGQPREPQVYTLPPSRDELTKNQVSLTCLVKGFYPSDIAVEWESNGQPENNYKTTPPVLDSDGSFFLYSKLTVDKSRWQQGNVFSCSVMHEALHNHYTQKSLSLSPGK
T1 sequence (chain, as listed by the source): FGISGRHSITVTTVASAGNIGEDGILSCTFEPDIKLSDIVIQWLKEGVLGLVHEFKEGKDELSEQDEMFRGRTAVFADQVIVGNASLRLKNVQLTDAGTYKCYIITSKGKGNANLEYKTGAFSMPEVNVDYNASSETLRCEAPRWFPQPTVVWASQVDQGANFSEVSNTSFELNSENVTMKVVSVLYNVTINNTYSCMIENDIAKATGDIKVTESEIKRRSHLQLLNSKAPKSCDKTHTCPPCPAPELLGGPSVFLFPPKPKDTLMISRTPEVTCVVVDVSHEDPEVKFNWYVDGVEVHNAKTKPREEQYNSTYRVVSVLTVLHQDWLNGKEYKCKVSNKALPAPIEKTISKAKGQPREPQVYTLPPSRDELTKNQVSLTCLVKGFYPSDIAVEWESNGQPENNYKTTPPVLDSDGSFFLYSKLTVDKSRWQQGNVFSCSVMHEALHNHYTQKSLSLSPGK

B1: Control antibody 1 (antibody 20502 described in US20190085080A1) (antibody, V domains shown)
VH: QLQLQESGPGLVKPSETLSLTCTVSGGSIKSGSYYWGWIRQPPGKGLEWIGNIYYSGSTYYNPSLRSRVTISVDTSKNQFSLKLSSVTAADTAVYYCAREGSYPNQFDPWGQGTLVTVSS
VL: EIVMTQSPATLSVSPGERATLSCRASQSVSSNLAWYQQKPGQAPRLLIYGASTRATGIPARFSGSGSGTEFTLTISSLQSEDFAVYYCQQYHSFPFTFGGGTKVEIK
notes: also called (+) control Ab1; (+) Ab1
Human B7-H4-Fc
  EC50 (read off the curve): ~0.07 nM
Human B7-H4-his [1]
  EC50 (read off the curve): ~0.2 nM
Human B7-H4-his [2]
  EC50 (read off the curve): ~0.2 nM
Mouse B7-H4-his
  EC50 (read off the curve): ~0.2 nM
[3]
  EC50 (read off the curve): ~0.2 nM
